Tested on: 3-methylcrotonic acid
Assay type: biochemical, Yersinia frederiksenii
Design: key: “+” representing a low increase in activity; “++++” representing a high increase in activity

B1: I283T-N285P-N287T-Q290E-S322T-N388M-K394R-C430A-i430aG-L432F-L434W-S436N-C437L-dG462 (protein)
chain: MFLKSLREQINLLKRQGDLRIINRPVDSYLEAAAIIRRSTETKAPVPLMTNIKGYPGCSIVGGLAALSSNPEYPLSRVAMSLGLSTTASAQSIVQYLIDGLKKTPYLPVEIDSNSAPCKQNILRGEDASLAHFPIPQVHQHDGNRYVNTWGVFIVESPDGQWCNWSIQRVQYLNDRQMIALVFPSQHISDIWEEWVKIGKPMPYALVQGCEPIVPYIAGLPLLERNVNEAEYIGALYGKGIEVVKCETHDLRVPASSEVVIEGYFAITREGVEGPFGEFAGYTPPETSLEPILSITAISWQDDPIWPVVAEGKPVDEYHTCTGIGDAAAIQNVLLTANLPVSFVWVPLYSACHLMIVSINRHWRQTHPDLTSEQLTKKVGDVIHQTRMSIKLPRIVVLDDDVDPADTESLLWALATRIHPERKRYFYESAIFPWLNLYSEEERHNRKGKRVIIDALLPENHGAISSFDYAYPDDIKQRVLMHWETDFSHD
Activity relative to WT: ++++

B2: L222V-I283T-N285P-N287T-Q290E-S322T-N388M-K394R-C430A-i430aG-L432F-L434W-S436N-dG462 (protein)
chain: MFLKSLREQINLLKRQGDLRIINRPVDSYLEAAAIIRRSTETKAPVPLMTNIKGYPGCSIVGGLAALSSNPEYPLSRVAMSLGLSTTASAQSIVQYLIDGLKKTPYLPVEIDSNSAPCKQNILRGEDASLAHFPIPQVHQHDGNRYVNTWGVFIVESPDGQWCNWSIQRVQYLNDRQMIALVFPSQHISDIWEEWVKIGKPMPYALVQGCEPIVPYIAGLPVLERNVNEAEYIGALYGKGIEVVKCETHDLRVPASSEVVIEGYFAITREGVEGPFGEFAGYTPPETSLEPILSITAISWQDDPIWPVVAEGKPVDEYHTCTGIGDAAAIQNVLLTANLPVSFVWVPLYSACHLMIVSINRHWRQTHPDLTSEQLTKKVGDVIHQTRMSIKLPRIVVLDDDVDPADTESLLWALATRIHPERKRYFYESAIFPWLNCYSEEERHNRKGKRVIIDALLPENHGAISSFDYAYPDDIKQRVLMHWETDFSHD
Activity relative to WT: ++++

B3: L223Y-I283T-N285P-N287T-Q290E-S322T-N388M-K394R-C430A-i430aN-L432F-L434W-S436N-dG462 (protein)
chain: MFLKSLREQINLLKRQGDLRIINRPVDSYLEAAAIIRRSTETKAPVPLMTNIKGYPGCSIVGGLAALSSNPEYPLSRVAMSLGLSTTASAQSIVQYLIDGLKKTPYLPVEIDSNSAPCKQNILRGEDASLAHFPIPQVHQHDGNRYVNTWGVFIVESPDGQWCNWSIQRVQYLNDRQMIALVFPSQHISDIWEEWVKIGKPMPYALVQGCEPIVPYIAGLPLYERNVNEAEYIGALYGKGIEVVKCETHDLRVPASSEVVIEGYFAITREGVEGPFGEFAGYTPPETSLEPILSITAISWQDDPIWPVVAEGKPVDEYHTCTGIGDAAAIQNVLLTANLPVSFVWVPLYSACHLMIVSINRHWRQTHPDLTSEQLTKKVGDVIHQTRMSIKLPRIVVLDDDVDPADTESLLWALATRIHPERKRYFYESAIFPWLNCYSEEERHNRKGKRVIIDALLPENHGAISSFDYAYPDDIKQRVLMHWETDFSHD
Activity relative to WT: ++++

B4: L223Y-I283T-N285P-N287T-Q290E-S322T-N388M-K394R-C430A-L432F-L434W-S436N-C437L-dG462 (protein)
chain: MFLKSLREQINLLKRQGDLRIINRPVDSYLEAAAIIRRSTETKAPVPLMTNIKGYPGCSIVGGLAALSSNPEYPLSRVAMSLGLSTTASAQSIVQYLIDGLKKTPYLPVEIDSNSAPCKQNILRGEDASLAHFPIPQVHQHDGNRYVNTWGVFIVESPDGQWCNWSIQRVQYLNDRQMIALVFPSQHISDIWEEWVKIGKPMPYALVQGCEPIVPYIAGLPLYERNVNEAEYIGALYGKGIEVVKCETHDLRVPASSEVVIEGYFAITREGVEGPFGEFAGYTPPETSLEPILSITAISWQDDPIWPVVAEGKPVDEYHTCTGIGDAAAIQNVLLTANLPVSFVWVPLYSACHLMIVSINRHWRQTHPDLTSEQLTKKVGDVIHQTRMSIKLPRIVVLDDDVDPADTESLLWALATRIHPERKRYFYESAIFPWLNLYSEEERHNRKGKRVIIDALLPENHGAISSFDYAYPDDIKQRVLMHWETDFSHD
Activity relative to WT: ++++

B5: L223Y-I283T-N285P-N287T-Q290E-S322T-N388M-K394R-C430A-i430aL-L432F-L434W-S436N-dG462 (protein)
chain: MFLKSLREQINLLKRQGDLRIINRPVDSYLEAAAIIRRSTETKAPVPLMTNIKGYPGCSIVGGLAALSSNPEYPLSRVAMSLGLSTTASAQSIVQYLIDGLKKTPYLPVEIDSNSAPCKQNILRGEDASLAHFPIPQVHQHDGNRYVNTWGVFIVESPDGQWCNWSIQRVQYLNDRQMIALVFPSQHISDIWEEWVKIGKPMPYALVQGCEPIVPYIAGLPLYERNVNEAEYIGALYGKGIEVVKCETHDLRVPASSEVVIEGYFAITREGVEGPFGEFAGYTPPETSLEPILSITAISWQDDPIWPVVAEGKPVDEYHTCTGIGDAAAIQNVLLTANLPVSFVWVPLYSACHLMIVSINRHWRQTHPDLTSEQLTKKVGDVIHQTRMSIKLPRIVVLDDDVDPADTESLLWALATRIHPERKRYFYESAIFPWLNCYSEEERHNRKGKRVIIDALLPENHGAISSFDYAYPDDIKQRVLMHWETDFSHD
Activity relative to WT: ++++

B6: I283T-N285P-N287T-Q290E-S322T-N388M-S389H-K394R-C430A-i430aG-L432F-L434W-S436N-dG462 (protein)
chain: MFLKSLREQINLLKRQGDLRIINRPVDSYLEAAAIIRRSTETKAPVPLMTNIKGYPGCSIVGGLAALSSNPEYPLSRVAMSLGLSTTASAQSIVQYLIDGLKKTPYLPVEIDSNSAPCKQNILRGEDASLAHFPIPQVHQHDGNRYVNTWGVFIVESPDGQWCNWSIQRVQYLNDRQMIALVFPSQHISDIWEEWVKIGKPMPYALVQGCEPIVPYIAGLPLLERNVNEAEYIGALYGKGIEVVKCETHDLRVPASSEVVIEGYFAITREGVEGPFGEFAGYTPPETSLEPILSITAISWQDDPIWPVVAEGKPVDEYHTCTGIGDAAAIQNVLLTANLPVSFVWVPLYSACHLMIVSINRHWRQTHPDLTSEQLTKKVGDVIHQTRMHIKLPRIVVLDDDVDPADTESLLWALATRIHPERKRYFYESAIFPWLNCYSEEERHNRKGKRVIIDALLPENHGAISSFDYAYPDDIKQRVLMHWETDFSHD
Activity relative to WT: ++++

B7: H141C-I283T-N285P-N287T-Q290E-S322T-N388M-K394R-C430A-i430aG-L432F-L434W-S436N-dG462 (protein)
chain: MFLKSLREQINLLKRQGDLRIINRPVDSYLEAAAIIRRSTETKAPVPLMTNIKGYPGCSIVGGLAALSSNPEYPLSRVAMSLGLSTTASAQSIVQYLIDGLKKTPYLPVEIDSNSAPCKQNILRGEDASLAHFPIPQVHQCDGNRYVNTWGVFIVESPDGQWCNWSIQRVQYLNDRQMIALVFPSQHISDIWEEWVKIGKPMPYALVQGCEPIVPYIAGLPLLERNVNEAEYIGALYGKGIEVVKCETHDLRVPASSEVVIEGYFAITREGVEGPFGEFAGYTPPETSLEPILSITAISWQDDPIWPVVAEGKPVDEYHTCTGIGDAAAIQNVLLTANLPVSFVWVPLYSACHLMIVSINRHWRQTHPDLTSEQLTKKVGDVIHQTRMSIKLPRIVVLDDDVDPADTESLLWALATRIHPERKRYFYESAIFPWLNCYSEEERHNRKGKRVIIDALLPENHGAISSFDYAYPDDIKQRVLMHWETDFSHD
Activity relative to WT: ++++

B8: I283T-N285P-N287T-Q290E-S322T-N388M-K394R-C430A-i430aG-L432F-L434W-S436N-V451S-dG462 (protein)
chain: MFLKSLREQINLLKRQGDLRIINRPVDSYLEAAAIIRRSTETKAPVPLMTNIKGYPGCSIVGGLAALSSNPEYPLSRVAMSLGLSTTASAQSIVQYLIDGLKKTPYLPVEIDSNSAPCKQNILRGEDASLAHFPIPQVHQHDGNRYVNTWGVFIVESPDGQWCNWSIQRVQYLNDRQMIALVFPSQHISDIWEEWVKIGKPMPYALVQGCEPIVPYIAGLPLLERNVNEAEYIGALYGKGIEVVKCETHDLRVPASSEVVIEGYFAITREGVEGPFGEFAGYTPPETSLEPILSITAISWQDDPIWPVVAEGKPVDEYHTCTGIGDAAAIQNVLLTANLPVSFVWVPLYSACHLMIVSINRHWRQTHPDLTSEQLTKKVGDVIHQTRMSIKLPRIVVLDDDVDPADTESLLWALATRIHPERKRYFYESAIFPWLNCYSEEERHNRKGKRSIIDALLPENHGAISSFDYAYPDDIKQRVLMHWETDFSHD
Activity relative to WT: ++++

B9: I283T-N285P-N287T-Q290E-S322T-I330V-N388M-K394R-C430A-i430aG-L432F-L434W-S436N-dG462 (protein)
chain: MFLKSLREQINLLKRQGDLRIINRPVDSYLEAAAIIRRSTETKAPVPLMTNIKGYPGCSIVGGLAALSSNPEYPLSRVAMSLGLSTTASAQSIVQYLIDGLKKTPYLPVEIDSNSAPCKQNILRGEDASLAHFPIPQVHQHDGNRYVNTWGVFIVESPDGQWCNWSIQRVQYLNDRQMIALVFPSQHISDIWEEWVKIGKPMPYALVQGCEPIVPYIAGLPLLERNVNEAEYIGALYGKGIEVVKCETHDLRVPASSEVVIEGYFAITREGVEGPFGEFAGYTPPETSLEPILSITAISWQDDPIWPVVAEGKPVDEYHTCTGIGDAAAVQNVLLTANLPVSFVWVPLYSACHLMIVSINRHWRQTHPDLTSEQLTKKVGDVIHQTRMSIKLPRIVVLDDDVDPADTESLLWALATRIHPERKRYFYESAIFPWLNCYSEEERHNRKGKRVIIDALLPENHGAISSFDYAYPDDIKQRVLMHWETDFSHD
Activity relative to WT: ++++

B10: L223Y-I283T-N285P-N287T-Q290E-S322T-N388M-K394R-C430A-i430aG-L432F-L434W-S436N-C437L-dG462 (protein)
chain: MFLKSLREQINLLKRQGDLRIINRPVDSYLEAAAIIRRSTETKAPVPLMTNIKGYPGCSIVGGLAALSSNPEYPLSRVAMSLGLSTTASAQSIVQYLIDGLKKTPYLPVEIDSNSAPCKQNILRGEDASLAHFPIPQVHQHDGNRYVNTWGVFIVESPDGQWCNWSIQRVQYLNDRQMIALVFPSQHISDIWEEWVKIGKPMPYALVQGCEPIVPYIAGLPLYERNVNEAEYIGALYGKGIEVVKCETHDLRVPASSEVVIEGYFAITREGVEGPFGEFAGYTPPETSLEPILSITAISWQDDPIWPVVAEGKPVDEYHTCTGIGDAAAIQNVLLTANLPVSFVWVPLYSACHLMIVSINRHWRQTHPDLTSEQLTKKVGDVIHQTRMSIKLPRIVVLDDDVDPADTESLLWALATRIHPERKRYFYESAIFPWLNLYSEEERHNRKGKRVIIDALLPENHGAISSFDYAYPDDIKQRVLMHWETDFSHD
Activity relative to WT: ++++
